Our source for the switch fluorescence ratio values is the supplement of paper PMC10126150.

± gives the standard deviation of the averaged measurements.

The series concerns ATP. The series is described as follows: switch fluorescence ratio, 500 uM ATP over buffer (Cy3 cluster intensity, sum of 5 cycles each) (fold (ratio)); higher = stronger signal-on switching upon ATP binding; sequences stand for … in TCGTCGGCAGCGTCAGATGTGTATAAGAGACAGTTTTTTTTTTTTTTTTTTTTTTTTT…TC. The note with it: aptamer strand: ATP DNA aptamer (quencher-CACCTGGGGGAGTATTGCGGAGGAAGG + anchor), 100 nM annealed; ATP concentration: 500 uM. A digest of the protocol:
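Per cluster, summed Cy3 intensity from the target cycles was divided by that from the buffer cycles to give the fluorescence ratio, then averaged per switch-domain sequence. Clusters outside 100-1000 RFU were excluded. The Cy3-labelled switching-strand clusters, on a modified Illumina MiSeq flow-cell, were annealed to 100 nM quencher-labelled ATP aptamer and imaged in selection buffer, then after 15 min with 500 uM ATP at 22 °C, for five cycles with NaOH stripping and re-annealing between them.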
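Further: ATP exposure 15 min at 22 °C before imaging.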

As to TAGTTTAGTT, the switch fluorescence ratio turned out to be 1 ± 0.015. Regarding TAGTTTCTAC, the switch fluorescence ratio came to 0.992 ± 0.033.

Regarding TAGTTTGAAC, the switch fluorescence ratio came out at 1.01 ± 0.05. Consider TAGTTTGGGC, for which the switch fluorescence ratio is 0.983 ± 0.019. For the sequence TAGTTTTGGG, the switch fluorescence ratio came to 0.9807 ± 0.0026. Regarding TAGTTTTTAT, the switch fluorescence ratio was 1.02 ± 0.014. As for TATAAACAGG, the switch fluorescence ratio is 0.998 ± 0.023. On to TATAAACGGG, for which the switch fluorescence ratio is 1 ± 0.024. With TATAAACTTT, the switch fluorescence ratio was 1.01 ± 0.054. As to TATAAATTAG, the switch fluorescence ratio worked out at 0.972 ± 0.026. For TATAACCAGG the value was 1.33 ± 0.086; for TATAAGAGAG, 1 ± 0.024; for TATAAGTATA, 1.02 ± 0.011. Regarding TATAAGTGAG, the switch fluorescence ratio turned out to be 1.02 ± 0.037. As to TATAATCATT, the switch fluorescence ratio is 0.985 ± 0.028. For the sequence TATAATCGAG, the switch fluorescence ratio is 1 ± 0.014. For the sequence TATAATGCTC, the switch fluorescence ratio amounted to 1.01 ± 0.014. Consider TATAATGGTG, for which the switch fluorescence ratio was found to be 0.976 ± 0.021. For TATACAATGG, the switch fluorescence ratio is 1.01 ± 0.024. On to TATACAGGGG, for which the switch fluorescence ratio came to 1.2 ± 0.024.

On to TATACATGAG, for which the switch fluorescence ratio came to 1.03 ± 0.021. In the case of TATACGACTC, the switch fluorescence ratio was 1.09 ± 0.068. Take TATACGTGGC: the switch fluorescence ratio came to 0.939 ± 0.03. For TATACTATGG the value was 1.01 ± 0.038. Regarding TATACTGGGA, the switch fluorescence ratio turned out to be 0.995 ± 0.012. On to TATACTGGGG, for which the switch fluorescence ratio worked out at 1.03 ± 0.059. For TATACTTTTT the value was 1.01 ± 0.021; for TATAGAAAGT, 0.9981 ± 0.0066. Turning to TATAGAGGGA, the switch fluorescence ratio was determined as 0.988 ± 0.02. Take TATAGCCTCG: the switch fluorescence ratio stood at 0.976 ± 0.017. In the case of TATAGGATT, the switch fluorescence ratio amounted to 0.986 ± 0.015.

As for TATAGGCCGG, the switch fluorescence ratio was found to be 0.991 ± 0.02.

Take TATAGGGAAT: the switch fluorescence ratio amounted to 0.98384 ± 3.5e-05. For TATAGGGAGT the value was 1.01 ± 0.014; for TATAGGGCAT, 1.01 ± 0.032. With TATAGGGGGA the figure was 1.04 ± 0.024; with TATAGGGGTC, 0.968 ± 0.014. TATAGGGTTG: the switch fluorescence ratio worked out at 0.999 ± 0.033. Turning to TATAGTAACT, the switch fluorescence ratio was 1.03 ± 0.041. Regarding TATAGTCATT, the switch fluorescence ratio stood at 1.02 ± 0.022. On to TATAGTCGGG, for which the switch fluorescence ratio is 0.98 ± 0.025.

In the case of TATAGTGAGG, the switch fluorescence ratio turned out to be 1.0603 ± 0.001. Regarding TATAGTGGGG, the switch fluorescence ratio came to 1.043 ± 0.0078. Turning to TATAGTGGGT, the switch fluorescence ratio was 1.01 ± 0.067. Consider TATAGTTTTG, for which the switch fluorescence ratio came to 0.996 ± 0.021. Consider TATATAACGG, for which the switch fluorescence ratio worked out at 1.036 ± 0.01. For TATATAGTCT the value was 1.024 ± 0.0086. TATATATGAC: the switch fluorescence ratio came out at 1.01 ± 0.022. For the sequence TATATATGTA, the switch fluorescence ratio was 1.01 ± 0.05. Take TATATATTTG: the switch fluorescence ratio was determined as 1.03 ± 0.029.

Consider TATATATTTT, for which the switch fluorescence ratio was 1.01 ± 0.029. In the case of TATATGCTGT, the switch fluorescence ratio came out at 0.98 ± 0.011.

Turning to TATATGGCGA, the switch fluorescence ratio is 0.995 ± 0.031. In the case of TATATTACGA, the switch fluorescence ratio is 1.03 ± 0.013. As to TATATTATGC, the switch fluorescence ratio came out at 1.02 ± 0.011. With TATATTCTTT the figure was 1 ± 0.023; with TATATTGCAT, 1.01 ± 0.015; with TATATTTACC, 1.04 ± 0.044. As for TATATTTAGT, the switch fluorescence ratio was determined as 0.973 ± 0.028. As to TATCAAAAGA, the switch fluorescence ratio came out at 1.03 ± 0.016. In the case of TATCAAATTA, the switch fluorescence ratio came out at 1.03 ± 0.011. Take TATCAATTCG: the switch fluorescence ratio is 0.997 ± 0.036.

For TATCACGCAT, the switch fluorescence ratio is 1.36 ± 0.018. Regarding TATCAGACAG, the switch fluorescence ratio worked out at 1.011 ± 0.0095.

Consider TATCAGTAGG, for which the switch fluorescence ratio was found to be 0.981 ± 0.021. With TATCCACATA the figure was 1.1 ± 0.013; with TATCCAGGGG, 2.063 ± 0.0021; with TATCCAGTGG, 1.01 ± 0.054. Take TATCCCGGCG: the switch fluorescence ratio was determined as 0.9977 ± 0.0082. With TATCCGAGGT, the switch fluorescence ratio turned out to be 1.16 ± 0.26.

For the sequence TATCCGGAAT, the switch fluorescence ratio came out at 1.79 ± 0.76.

On to TATCGCAATG, for which the switch fluorescence ratio amounted to 3.63 ± 0.32. Take TATCGGCGAG: the switch fluorescence ratio turned out to be 1.02 ± 0.046. As for TATCGGGAGC, the switch fluorescence ratio came to 0.986 ± 0.026. For the sequence TATCGGGATA, the switch fluorescence ratio is 0.994 ± 0.021. Consider TATCGTAGGC, for which the switch fluorescence ratio is 0.9996 ± 0.00057. In the case of TATCGTCGGG, the switch fluorescence ratio is 1.008 ± 0.0064. For the sequence TATCTAAAGT, the switch fluorescence ratio stood at 1.01 ± 0.029. Consider TATCTAAATA, for which the switch fluorescence ratio is 1.007 ± 0.007. With TATCTAGGGC, the switch fluorescence ratio was determined as 1.025 ± 0.0042. With TATCTAGGGG, the switch fluorescence ratio stood at 0.981 ± 0.035.

As for TATCTAGGTT, the switch fluorescence ratio came to 1 ± 0.02. For TATCTATCCG, the switch fluorescence ratio turned out to be 0.985 ± 0.039. For the sequence TATCTATCTT, the switch fluorescence ratio is 0.994 ± 0.0066. On to TATCTCAACG, for which the switch fluorescence ratio was determined as 1.045 ± 0.006. Take TATCTGGGGG: the switch fluorescence ratio amounted to 1.01 ± 0.055. For TATCTGTATA, the switch fluorescence ratio worked out at 1.11 ± 0.17. For TATCTTAAAT, the switch fluorescence ratio was found to be 0.997 ± 0.028. As for TATCTTGCAT, the switch fluorescence ratio is 0.97 ± 0.048. For TATCTTTGGG the value was 0.981 ± 0.026; for TATGAAAGTG, 0.983 ± 0.035; for TATGAAATAG, 0.99 ± 0.034. As for TATGAAGGGG, the switch fluorescence ratio was found to be 1.22 ± 0.34.

As for TATGAATTGG, the switch fluorescence ratio came to 1 ± 0.018. Take TATGACGTTA: the switch fluorescence ratio came out at 1 ± 0.048.

On to TATGAGATTA, for which the switch fluorescence ratio is 0.9935 ± 0.004. With TATGAGGAAC the figure was 1.09 ± 0.14; with TATGAGGCTT, 0.999 ± 0.028. Consider TATGAGGGGT, for which the switch fluorescence ratio was 1.13 ± 0.047. For TATGATAGGC, the switch fluorescence ratio was found to be 0.953 ± 0.058. TATGATGTGC: the switch fluorescence ratio amounted to 0.969 ± 0.017. Regarding TATGATTTGT, the switch fluorescence ratio was 1 ± 0.019. TATGATTTTG: the switch fluorescence ratio turned out to be 0.993 ± 0.02. As for TATGCATTAA, the switch fluorescence ratio was 1.01 ± 0.021. On to TATGCCGGGG, for which the switch fluorescence ratio turned out to be 0.988 ± 0.057. As to TATGCGGGGC, the switch fluorescence ratio came to 1.1 ± 0.12. As to TATGCTAAGG, the switch fluorescence ratio worked out at 0.996 ± 0.025.

For TATGGACA, the switch fluorescence ratio was determined as 1.05 ± 0.01. Consider TATGGACGTT, for which the switch fluorescence ratio turned out to be 1.03 ± 0.053. On to TATGGAGGGC, for which the switch fluorescence ratio worked out at 1.06 ± 0.041. For TATGGATCTT, the switch fluorescence ratio is 0.983 ± 0.027.

As for TATGGATGGG, the switch fluorescence ratio is 0.961 ± 0.02. Turning to TATGGATTGG, the switch fluorescence ratio was found to be 0.977 ± 0.029. As for TATGGCATGG, the switch fluorescence ratio came to 1 ± 0.05.

In the case of TATGGCCAGT, the switch fluorescence ratio is 1.03 ± 0.033.

Consider TATGGCCGCC, for which the switch fluorescence ratio was 1.01 ± 0.043.

With TATGGCGACA, the switch fluorescence ratio turned out to be 1.01 ± 0.087. TATGGGAGGC: the switch fluorescence ratio was determined as 1.01 ± 0.059.

TATGGGCACG: the switch fluorescence ratio is 0.99 ± 0.024. As for TATGGGCCAG, the switch fluorescence ratio was 0.996 ± 0.02.
